{"source": "paper PMC5670239", "about": "“Structural basis for mutually exclusive co-transcriptional nuclear cap-binding complexes with either NELF-E or ARS2” (Nature Communications, 2017)", "key": {"[1]": {"molecular_target": "T1, m^7GTP-CBC (Homo sapiens, UniProt P52298+Q09161)", "T1 construct": "6-histidine tag (pETM30 vector) (N, cleaved yes); made in house; host or cells: CBP20 in E. coli Rosetta 2; CBP80ΔNLS in High Five insect cells; heterodimer reconstituted on Ni-sepharose", "T1 sequence (Q09161 20-790)": "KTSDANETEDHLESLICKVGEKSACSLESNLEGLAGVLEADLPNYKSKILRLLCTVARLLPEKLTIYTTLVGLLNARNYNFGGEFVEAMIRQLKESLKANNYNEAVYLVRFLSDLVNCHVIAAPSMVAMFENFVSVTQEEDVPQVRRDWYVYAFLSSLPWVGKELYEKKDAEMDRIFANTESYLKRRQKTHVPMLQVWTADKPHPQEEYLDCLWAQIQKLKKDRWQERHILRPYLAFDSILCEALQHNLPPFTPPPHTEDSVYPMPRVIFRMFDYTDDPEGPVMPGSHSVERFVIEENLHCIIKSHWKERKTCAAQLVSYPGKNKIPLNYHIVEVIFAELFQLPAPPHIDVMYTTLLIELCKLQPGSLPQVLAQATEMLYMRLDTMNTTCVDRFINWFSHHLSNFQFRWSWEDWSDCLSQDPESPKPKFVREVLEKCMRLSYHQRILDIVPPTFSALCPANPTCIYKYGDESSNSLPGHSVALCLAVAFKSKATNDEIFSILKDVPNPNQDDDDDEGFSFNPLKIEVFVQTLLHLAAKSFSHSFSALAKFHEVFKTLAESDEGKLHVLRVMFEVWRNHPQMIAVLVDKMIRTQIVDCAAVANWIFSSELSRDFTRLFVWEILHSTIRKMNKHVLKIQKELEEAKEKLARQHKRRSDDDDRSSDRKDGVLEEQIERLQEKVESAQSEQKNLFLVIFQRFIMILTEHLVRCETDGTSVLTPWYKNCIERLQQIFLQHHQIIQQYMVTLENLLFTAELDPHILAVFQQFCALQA", "T1 sequence (P52298 1-156)": "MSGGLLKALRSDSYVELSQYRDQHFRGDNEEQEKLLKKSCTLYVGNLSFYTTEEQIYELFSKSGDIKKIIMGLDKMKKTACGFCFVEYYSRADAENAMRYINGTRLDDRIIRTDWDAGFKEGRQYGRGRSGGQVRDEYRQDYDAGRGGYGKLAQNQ", "experiment": "ITC, binding to CBC in the presence of the cap analogue m^7GTP", "details": "for Kd: ITC, 25 °C, 20 mM HEPES, 120 mM NaCl, 2 mM TCEP, pH 7.8, CBC bound to m^7GTP, mean ± SD of at least two independent experiments, SD", "source_text": "(§1) hARS2 isoform-4 (871 residues, UniProt:Q9BXP5-4, also known as isoform-e, NP_001122326) constructs (residues 147–871, 147–845, 763–871, 763–845, 827–871) hNELF-E (NM_002904.5) (244–380, 244–360) and hPHAX (NM_032177.3) (1–394, 103–294, 103–308, 103–327) were cloned into pETM11 (EMBL). Full-length hNELF-E (1–380) was cloned into pFASTBac and CBP20 into pETM30. Primers used are given in Supplementary Table 2. All constructs were expressed in E. coli Rosetta 2 (Novagen), except full-length NELF-E and CBP80ΔNLS (CBP80 with residues 1–19 deleted[2]), which were expressed in High Five insect cells (Life Technology). Cells were harvested and lysed by sonication in lysis buffer containing 50 mM HEPES, pH 7.8, 300 mM NaCl, 10% (v/v) glycerol, 5 mM β-mercaptoethanol. Lysates were clarified by centrifugation and applied on an equilibrated Ni-sepharose column (GE Healthcare), washed with 20 mM imidazole in lysis buffer, and eluted with 300 mM imidazole in lysis buffer. While dialysing into 20 mM HEPES, pH 7.8, 120 mM NaCl, 10% (v/v) glycerol, 5 mM β-mercaptoethanol, the N-terminal 6-histidine-tag was cleaved with His-tagged Tobacco Etch Virus (TEV) protease overnight in a ratio 1:100 mg TEV per mg protein. The cleaved protein was further purified first on Ni-sepharose to remove TEV and then using an anion exchange column (HiTrap Q, GE Healthcare) followed if necessary by a Heparin column (GE Healthcare). In both cases a NaCl gradient from 50 to 800 mM in 20 mM HEPES 7.8, 0.5 mM tris(2-carboxyethyl)phosphine was used. To reconstitute the CBC heterodimer, cleared His-tagged CBP20 lysate was first immobilised on a Ni-sepharose column. After washing the column with lysis buffer, the cleared CBP80 lysate was applied to the column and further purification steps performed as described above. To remove the access of CBP20 the flow through of the Ni-column after TEV cleavage was loaded on an anion exchange column (HiTrap Q, GE Healthcare) and CBC eluted by a NaCl gradient as described above. In the text we refer to CBP80ΔNLS and CBP80ΔNLS-CBP20 as CBP80 and CBC, respectively. ARS2^845–871, NELF-E^354–380, and NELF-E^360–380 peptides, with or without FAM label at the N-terminus, were purchased from GenScript."}, "[2]": {"molecular_target": "T2, CBC (Homo sapiens, UniProt P52298)", "T2 sequence (P52298 1-156)": "T1 sequence (P52298 1-156)", "T2 sequence (Q09161 20-790 partner)": "T1 sequence (Q09161 20-790)", "experiment": "ITC, binding to CBC without cap analogue", "details": "ITC (MicroCal ITC200), 25 °C, 20 mM HEPES, 120 mM NaCl, 2 mM TCEP, pH 7.8, single-site fit; no cap analogue pre-bound; mean ± SD of at least two independent experiments; SD", "source_text": "as §1, with “ARS2^845–871, NELF-E^354–380, and NELF-E^360–380 peptides, with or without FAM label at the N-terminus, were purchased from GenScript.” left out"}, "[3]": {"molecular_target": "T1, m^7GTP-CBC", "experiment": "Fluorescence polarisation with FAM-labelled C-terminal peptides", "type": "binding", "details": "40 nM FAM peptide, 25 °C, n = 3; for Change of fluorescence polarisation on addition of labelled peptide to m^7GTP-CBC: 20 mM HEPES pH 7.8, 120 mM NaCl, 2 mM TCEP, ex 495 / em 515 nm", "method": "(§2) Fig. 4 Incompatibility of ARS2-PHAX and NELF-E binding to CBC. a, b Competition on m^7GTP-sepharose. a In separate experiments, different amounts of ARS2^147–871 were added to preformed CBC–NELF–E complex immobilised on m^7GTP-sepharose. […] The fluorophore FAM is represented with a star. Note that different constructs of NELF-E and ARS2 were used in c, d, and e compared to f, g, and h and are therefore represented by slightly different shapes. Error bars show the SD of three experiments\nFluorescence anisotropy binding assays were performed with N-terminal FAM-labelled ARS2^845–871 and […] peptides. 40 nM peptides were titrated with increasing concentrations of proteins in 20 mM HEPES, pH 7.8, 120 mM NaCl, 2 mM tris(2-carboxyethyl)phosphine. For the competition assay CBC–ARS2 and CBC–NELF–E complexes were preformed in the presence of 25 µM m^7GTP using 40 nM ARS2^827–871(FAM) peptide together with 60 nM CBC and 40 nM NELF-E^354–380(FAM) peptide with 1 µM CBC. […] To observe a change in polarisation at reasonable protein concentrations, CBC and NELF-E^244–380 concentrations that saturate half of the FAM-labelled peptides were used to preform the individual complexes. Fluorescence polarisation was measured at 25 °C with a microplate reader (CLARIOstar BMG LABTECH) using an excitation wavelength of 495 nm and emission wavelength of 515 nm. For analysis the polarisation value for the peptide alone was subtracted from the measurements."}, "[4]": {"molecular_target": "m^7GTP-CBCmut", "experiment": "ITC, binding to mutated CBC in the presence of m^7GTP", "design": "species or system human", "details": "with m^7GTP; for Kd: 25 °C, pH 7.8, CBCmut = CBP20 Y50A + CBP80 Y461A/R610E/H651A, mean ± SD of 2 experiments", "protocol": "For CBC, a triple mutant in CBP80 (Y461A/R610E/H651A) was combined with various mutations in CBP20 (Y50A, Y50A/Y89A, or Y50A/Y89A/D107R).\nITC experiments were performed on a MicroCal ITC200 system (Malvern). Proteins were dialyzed overnight in buffer 20 mM HEPES, 120 mM NaCl, 2 mM tris(2-carboxyethyl)phosphine, pH 7.8. Injections of 1.5 µl protein A were added at an interval of 120–180 s into 205 µl of protein B in the cell, with a stirring speed of 800 rpm at 25 °C. The experimental data were analysed with MicroCal ITC Origin and were fitted to a single-site binding equation."}, "[5]": {"test_system": "CBC with triple mutants of both CBP20 and CBP80", "experiment": "m^7GTP-sepharose pull down with mutated CBC", "type": "binding, human", "details": "CBP80 Y461A/R610E/H651A combined with CBP20 Y50A/Y89A/D107R", "description": "For CBC, a triple mutant in CBP80 (Y461A/R610E/H651A) was combined with various mutations in CBP20 (Y50A, Y50A/Y89A, or Y50A/Y89A/D107R). Binding of ARS2^827–871 to mutated CBC was first tested by m^7GTP-sepharose pull down (Supplementary Fig. 6)."}, "[6]": {"molecular_target": "T2, CBC", "experiment": "Size exclusion chromatography (gel filtration) co-elution with CBC, without m^7GTP", "type": "binding", "details": "fractions analysed by SDS-PAGE, absence of m^7GTP", "method": "(§3) Fig. 1 The interaction of CBC with ARS2 is enhanced in the presence of m^7GTP. a Schematic diagram of the domain structure of ARS2 based on ref. [26]. b Gel filtration chromatogram and Coomassie-stained SDS-PAGE of CBC-ARS2 in the presence and absence of m^7GTP. Purified recombinant CBC and ARS2^147–871 were mixed with (orange) or without (blue) 500 µM m^7GTP and subjected to gel filtration. Their elution profiles were overlaid (left) and single fractions analysed by SDS-PAGE (middle and right). Purified recombinant CBC and C-terminally truncated ARS2^147–845 were mixed with 500 µM m^7GTP and analysed in a similar way (bottom left). c ITC data and curve fit to derive the affinity of different ARS2 constructs for CBC. CBC or m^7GTP-CBC in the sample cell was titrated by ARS2. […] K D values and standard deviation represent the average from at least two independent experiments. d Sequence alignment of the C-terminus of ARS2. Conserved residues are highlighted in red. Figure made with ESPript[54]\n(§4) Fig. 2 The interaction of CBC with NELF-E is enhanced in the presence of m^7GTP. a Schematic diagram of the domain structure of NELF-E. b Gel filtration chromatogram and Coomassie-stained SDS-PAGE of CBC-NELF-E in the presence and absence of m^7GTP. […] Their elution profiles were overlaid (left) and single fractions analysed by SDS-PAGE (middle and right). […]"}, "[7]": {"molecular_target": "T2, CBC", "experiment": "Size exclusion chromatography (gel filtration) co-elution with CBC, with m^7GTP", "type": "binding", "details": "gel filtration with 500 µM m^7GTP, fractions analysed by SDS-PAGE", "method": "as §3, §4"}, "[8]": {"test_system": "CBC–PHAX complex immobilised on m^7GTP-sepharose", "experiment": "Displacement pull down on m^7GTP-sepharose, CBC–PHAX", "type": "binding, human", "details": "different amounts added, 1 h at 4 °C, flow through and elution by SDS-PAGE", "method": "as §2\nCBC-NELF-E^1–380 or CBC-PHAX^1–394 were immobilised on m^7GTP-sepharose and incubated for 1 h at 4 °C with different amounts of ARS2^147–871 or NELF-E^1–380 in 20 mM HEPES, pH 7.8, 120 mM NaCl, 2 mM tris(2-carboxyethyl)phosphine, respectively. The flow through, as well as the elution from the beads after extensive washing, was analysed by SDS-PAGE followed by Coomassie staining."}}, "note": "Ends that are not written are not given here."}
{"substance": "ARS2 827–871: human ARS2 isoform 4 residues 827–871, E. coli expressed construct (APYGAGRGNYDAFRGQGGYPGKPRNRMVRGDPRAIVEYRDLDAPD; isoform 4; UniProt Q9BXP5 827-871, looked up, fragment)", "values": [{"measurement": "Kd", "setting": "[1]", "result": "1 ± 0.2", "unit": "µM"}, {"measurement": "Enhancement of the interaction with CBC when m^7GTP is bound", "setting": "[1]; ratio of ITC K D without / with m^7GTP", "result": "twelve-fold"}, {"measurement": "Kd", "setting": "[2]", "result": "12.2 ± 3.5", "unit": "µM"}, {"measurement": "Change of polarisation on titration to m^7GTP-CBC-NELF-E^354–380(FAM)", "setting": "[3]; competition, 1 µM CBC, 25 µM m^7GTP", "result": "decrease in polarisation"}, {"measurement": "Kd", "setting": "[4]", "result": "~12", "unit": "µM"}, {"measurement": "Kd", "setting": "[4]; SD", "result": "11.6 ± 1.1", "unit": "µM"}, {"measurement": "Reduction in affinity of CBCmut compared to wild-type CBC", "setting": "[4]", "result": "twelvefold"}, {"measurement": "Co-elution with mutated CBC in m^7GTP-sepharose pull down", "setting": "[5]", "result": "abolished co-elution"}]}
{"substance": "PHAX: full-length human PHAX (phosphorylated adaptor for RNA export), residues 1–394", "values": [{"measurement": "Kd", "setting": "[1]", "result": "0.13 ± 0.05", "unit": "µM"}]}
{"substance": "ARS2^845–871(FAM): N-terminal FAM-labelled ARS2 845–871 peptide ({FAM}-YPGKPRNRMVRGDPRAIVEYRDLDAPD; UniProt Q9BXP5 845-871, looked up, fragment) [reference compound]", "values": [{"measurement": "Change of fluorescence polarisation on addition of labelled peptide to m^7GTP-CBC", "setting": "[3]", "result": "increase in fluorescence polarisation, indicating binding"}]}
{"substance": "RNRMVRGDPRAIVEYRDLDAPDDVDFF [ARS2 845–871]", "values": [{"measurement": "Kd", "setting": "[1]", "result": "1.1 ± 0.16", "unit": "µM"}]}
{"substance": "NELF-E^354–380(FAM): N-terminal FAM-labelled NELF-E 354–380 peptide ({FAM}-PKGCHRDKRTQIVYSDDVYKENLVDGF; UniProt P18615 354-380, looked up, fragment) [reference compound]", "values": [{"measurement": "Change of fluorescence polarisation on addition of labelled peptide to m^7GTP-CBC", "setting": "[3]", "result": "increase in fluorescence polarisation, indicating binding"}]}
{"substance": "NELF-E^1–380: full-length human NELF-E, expressed in High Five insect cells", "values": [{"measurement": "Interaction with CBC by SEC", "setting": "[6]", "result": "partially co-eluted"}, {"measurement": "Interaction with CBC by SEC in the presence of m^7GTP", "setting": "[7]", "result": "stabilised the complex"}, {"measurement": "Displacement of PHAX from preformed CBC-PHAX^1–394 bound to m^7GTP-sepharose", "setting": "[8]", "result": "resulted in the displacement of PHAX^1–394"}]}
{"substance": "DKRTQIVYSDDVYKENLVDGF [NELF-E 360–380]", "values": [{"measurement": "Kd", "setting": "[1]", "result": "3.3 ± 1.1", "unit": "µM"}]}
{"substance": "ARS2 827–871 F871D: ARS2 827–871 construct with F871D mutation (GRGNYDAFRGQGGYPGKPRNRMVRGDPRAIVEYRDLDAPDDVDFD)", "values": [{"measurement": "Kd", "setting": "[1]", "result": "1.8 ± 0.26", "unit": "µM"}]}
